Data reported in the supplement of paper PMC9876800.

Tested on: peptide library, one residue held at a place counted from the S/T acceptor
Assay: relative phosphorylation of the sub-library (ratio to the mean residue at this position); higher = residue favoured
In short: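 Relative sub-library phosphorylation, a ratio to the mean residue at that position, was obtained by phosphorimaging and densitometry of spots on streptavidin membranes. Before capture, purified recombinant kinases were incubated for 90 min under kinase-specific conditions with 50 μM biotinylated degenerate peptide sub-libraries and 50 μM ATP spiked with γ-32P-ATP. Each sub-library fixed one residue at one position around a central Ser/Thr.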

ERN1, construct: aa468-end, human, sequence (O75460 468-977, looked up): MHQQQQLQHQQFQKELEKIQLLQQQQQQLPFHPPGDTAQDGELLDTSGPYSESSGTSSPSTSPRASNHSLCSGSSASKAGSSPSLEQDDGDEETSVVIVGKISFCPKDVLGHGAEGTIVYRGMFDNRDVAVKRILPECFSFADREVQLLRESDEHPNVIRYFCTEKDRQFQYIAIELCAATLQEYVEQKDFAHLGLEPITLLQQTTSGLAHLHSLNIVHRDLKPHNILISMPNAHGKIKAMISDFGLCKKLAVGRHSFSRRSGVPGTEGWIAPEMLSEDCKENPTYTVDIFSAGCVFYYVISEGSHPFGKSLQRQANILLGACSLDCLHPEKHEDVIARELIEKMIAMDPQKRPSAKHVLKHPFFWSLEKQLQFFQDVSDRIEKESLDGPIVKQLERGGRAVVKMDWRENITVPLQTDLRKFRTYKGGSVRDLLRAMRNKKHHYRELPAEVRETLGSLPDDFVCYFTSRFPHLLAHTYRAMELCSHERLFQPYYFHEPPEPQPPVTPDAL
LATS2, construct: aa553-end, human, sequence (Q9NRM7 553-1088, looked up): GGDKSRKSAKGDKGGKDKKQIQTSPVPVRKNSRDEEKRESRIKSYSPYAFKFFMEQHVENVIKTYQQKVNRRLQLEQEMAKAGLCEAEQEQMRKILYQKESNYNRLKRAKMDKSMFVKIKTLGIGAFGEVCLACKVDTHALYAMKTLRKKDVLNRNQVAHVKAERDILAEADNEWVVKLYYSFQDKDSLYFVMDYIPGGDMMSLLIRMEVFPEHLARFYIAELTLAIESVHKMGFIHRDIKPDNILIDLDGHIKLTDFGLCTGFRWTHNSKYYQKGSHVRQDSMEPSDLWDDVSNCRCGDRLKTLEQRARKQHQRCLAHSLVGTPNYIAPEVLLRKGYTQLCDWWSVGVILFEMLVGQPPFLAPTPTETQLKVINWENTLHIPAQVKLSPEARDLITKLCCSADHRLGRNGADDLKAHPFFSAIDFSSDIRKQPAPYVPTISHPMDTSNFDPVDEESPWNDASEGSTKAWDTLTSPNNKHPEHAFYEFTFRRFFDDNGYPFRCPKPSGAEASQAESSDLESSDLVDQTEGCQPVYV

LATS2, construct: aa553-end, human (from UniProt Q9NRM7)
relative phosphorylation
Settings	at +1	at +2	at +3	at +4	at -1	at -2	at -3	at -4	at -5
A fixed	0.577	1.11	0.859	0.703	0.693	0.789	0.766	1.15	0.615
D fixed	0.89	2.94	1.47	1.4	0.702	0.901	0.465	0.649	0.475
E fixed	0.953	0.932	1.36	1.49	0.516	1.27	0.352	0.739	0.308
F fixed	1.29	0.699	0.846	0.865	0.483	0.764	0.415	0.981	0.672
G fixed	0.876	1.53	1.54	1.27	0.994	1.13	0.769	1.15	0.706
H fixed	0.995	1.27	1.2	1.31	1.07	1.43	1.66	1.36	6.2
I fixed	1.16	0.853	0.778	0.671	0.331	0.321	0.242	0.49	0.308
K fixed	0.821	0.357	0.868	0.756	2.74	1.03	2.4	1.27	1.12
L fixed	1.12	0.862	0.825	0.661	0.699	0.393	0.297	0.587	0.458
M fixed	1.49	0.841	0.875	1.07	0.71	0.91	0.36	0.92	0.439
N fixed	1.42	1.01	1.03	1.28	1.12	1.64	0.784	0.925	0.607
P fixed	0.328	0.794	1.04	1.33	2.39	0.766	1.48	1.34	0.682
Q fixed	1.11	0.789	1.04	1.05	1.19	2.35	0.897	1.08	0.719
R fixed	0.717	0.357	0.617	0.741	1.42	1.26	4.37	1.78	1.43
V fixed	0.84	0.829	0.747	0.524	0.425	0.367	0.325	0.545	0.445
W fixed	1.23	0.807	1.03	0.887	0.746	0.899	0.691	1.08	1.04
Y fixed	1.18	1.02	0.874	0.996	0.779	0.782	0.734	0.966	0.776
pThr fixed	1.08	0.655	0.925	1.55	0.287	0.456	0.441	0.552	0.349
pTyr fixed	1.09	0.807	1.04	1.12	0.347	0.382	0.418	0.548	0.442

ERN1, construct: aa468-end, human (from UniProt O75460)
relative phosphorylation
Settings	at +1	at +2	at +3	at +4	at -1	at -2	at -3	at -4	at -5
A fixed	0.993	0.597	0.656	0.755	1.28	1.07	1.06	1.11	1.07
D fixed	0.229	0.173	0.375	0.276	0.33	0.672	0.705	0.813	0.747
E fixed	0.263	0.158	0.201	0.26	0.373	0.869	0.801	0.831	0.781
F fixed	0.67	0.858	1.32	1.07	0.966	1.13	0.781	0.708	0.873
G fixed	1.15	0.662	0.791	0.892	0.804	1.26	1.59	1.29	1.25
H fixed	0.835	1.9	1.31	1.03	1.75	1.03	1.03	0.948	1.07
I fixed	0.632	1.08	0.76	0.849	0.562	0.794	0.906	0.949	1.04
K fixed	2.21	1.7	1.45	2.02	1.89	1.14	1.2	1.48	1.49
L fixed	0.643	1.21	0.973	0.766	0.658	0.857	0.854	0.87	0.97
M fixed	1.03	1.14	0.85	0.929	0.937	0.9	0.818	0.937	0.871
N fixed	1.14	0.559	0.793	0.795	0.844	0.933	0.926	1.03	0.956
P fixed	0.258	0.347	0.525	0.851	0.833	1.43	1.08	0.981	0.909
Q fixed	1.2	0.65	0.683	0.912	0.986	0.958	0.833	0.878	0.822
R fixed	3.41	2.73	3.08	2.09	1.86	1.29	1.77	1.45	1.28
V fixed	0.78	1.19	0.726	0.85	1.02	0.982	0.938	0.911	0.971
W fixed	0.775	0.963	1.19	1.45	0.74	0.724	0.813	0.924	0.926
Y fixed	0.778	1.08	1.31	1.2	1.16	0.951	0.906	0.888	0.963
pThr fixed	0.381	0.299	0.315	0.372	0.448	0.996	1.2	0.999	0.991
pTyr fixed	0.3	0.61	0.58	0.345	0.571	1.16	1	0.776	0.916
